The subject of series [1] is HeLa Kyoto. As to the kind of experiment: solubility in G1/S (NP-40 vs SDS abundance) (log2 ratio); higher = more soluble. The note with it: cell cycle stage: G1/S.
In series [2] the test system is HeLa Kyoto. As to the kind of experiment: melting temperature (median over replicates), in situ; higher = more thermally stable.
In series [3] the test system is HeLa Kyoto. As to the kind of experiment: solubility change mitosis vs G1/S (difference of NP-40 vs SDS log2 ratios) (log2 ratio difference); higher = more soluble in mitosis.
Series [4] has as its system HeLa Kyoto. Put plainly: thermal stability score vs G1/S (z-score of summed log2 fold changes over temperatures); higher = more thermally stable than in G1/S.
[5] abbreviates: cell cycle stage: early G1 (4.5 h after nocodazole release).
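For melting temperature (median over replicates), in situ in this document: HeLa Kyoto cells synchronized by double thymidine or nocodazole block, proteins quantified by TMT10plex mass spectrometry, three independent biological replicates.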
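For solubility change mitosis vs G1/S (difference of NP-40 vs SDS log2 ratios) in this document: synchronized HeLa Kyoto cells (double thymidine block for G1/S, nocodazole release for mitosis), protein amounts in NP-40 versus SDS lysates quantified by mass spectrometry, three biological replicates.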
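For solubility in G1/S (NP-40 vs SDS abundance) in this document: HeLa Kyoto cells arrested at G1/S by double thymidine block, proteins quantified by TMT10plex mass spectrometry in mild NP-40 versus SDS extracts, three biological replicates.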
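For thermal stability score vs G1/S (z-score of summed log2 fold changes over temperatures) in this document: synchronized HeLa Kyoto cells, proteins quantified by TMT10plex mass spectrometry, three biological replicates, mitosis taken 0.5 h after nocodazole release, G1/S directly after double thymidine block.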

Take “MPVQLSEHPEWNESMHSLRISVGGLPVLASMTKAADPRFRPRWKVILTFFVGAAILWLLCSHRPAPGRPPTHNAHNWRLGQAPANWYNDTYPLSPPQRTPAGIRYRIAVIADLDTESRAQEENTWFSYLKKGYLTLSDSGDKVAVEWDKDHGVLESHLAEKGRGMELSDLIVFNGKLYSVDDRTGVVYQIEGSKAVPWVILSDGDGTVEKGFKAEWLAVKDERLYVGGLGKEWTTTTGDVVNENPEWVKVVGYKGSVDHENWVSNYNALRAAAGIQPPGYLIHESACWSDTLQRWFFLPRRASQERYSEKDDERKGANLLLSASPDFGDIAVSHVGAVVPTHGFSSFKFIPNTDDQIIVALKSEEDSGRVASYIMAFTLDGRFLLPETKIGSVKYEGIEFI [CANT1]”: the “solubility in G1/S (log2)” value in series [1] amounted to 0.0305. The melting temperature was 55.2 °C in series [2] (cell cycle stage: G1/S) and 54.6 °C in series [2] (cell cycle stage: mitosis). In addition, the “solubility change mitosis (log2)” value in series [3] is -0.137. Moreover, the thermal stability score in series [4] (setting [5]) is -0.646; in series [4] (cell cycle stage: mitosis), -1.1.
On to “MPYEIKKVFASLPQVERGVSKIIGGDPKGNNFLYTNGKCVILRNIDNPALADIYTEHAHQVVVAKYAPSGFYIASGDVSGKLRIWDTTQKEHLLKYEYQPFAGKIKDIAWTEDSKRIAVVGEGREKFGAVFLWDSGSSVGEITGHNKVINSVDIKQSRPYRLATGSDDNCAAFFEGPPFKFKFTIGDHSRFVNCVRFSPDGNRFATASADGQIYIYDGKTGEKVCALGGSKAHDGGIYAISWSPDSTHLLSASGDKTSKIWDVSVNSVVSTFPMGSTVLDQQLGCLWQKDHLLSVSLSGYINYLDRNNPSKPLHVIKGHSKSIQCLTVHKNGGKSYIYSGSHDGHINYWDSETGENDSFAGKGHTNQVSRMTVDESGQLISCSMDDTVRYTSLMLRDYSGQGVVKLDVQPKCVAVGPGGYAVVVCIGQIVLLKDQRKCFSIDNPGYEPEVVAVHPGGDTVAIGGVDGNVRLYSILGTTLKDEGKLLEAKGPVTDVAYSHDGAFLAVCDASKVVTVFSVADGYSENNVFYGHHAKIVCLAWSPDNEHFASGGMDMMVYVWTLSDPETRVKIQDAHRLHHVSSLAWLDEHTLVTTSHDASVKEWTITY [WDR1]”, for which the “solubility in G1/S (log2)” value in series [1] was -0.153. Further, the melting temperature in series [2] (cell cycle stage: G1/S) was determined as 53.7 °C; in series [2] (cell cycle stage: mitosis), 52.3 °C. For the same sequence, the “solubility change mitosis (log2)” value in series [3] was -0.128. The thermal stability score in series [4] (setting [5]) was -0.713; in series [4] (cell cycle stage: mitosis), -2.84.
Regarding “MPYLGSEDVVKELKKALCNPHIQADRLRYRNVIQRVIRYMTQGLDMSGVFMEMVKASATVDIVQKKLVYLYMCTYAPLKPDLALLAINTLCKDCSDPNPMVRGLALRSMCSLRMPGVQEYIQQPILNGLRDKASYVRRVAVLGCAKMHNLHGDSEVDGALVNELYSLLRDQDPIVVVNCLRSLEEILKQEGGVVINKPIAHHLLNRMSKLDQWGQAEVLNFLLRYQPRSEEELFDILNLLDSFLKSSSPGVVMGATKLFLILAKMFPHVQTDVLVRVKGPLLAACSSESRELCFVALCHVRQILHSLPGHFSSHYKKFFCSYSEPHYIKLQKVEVLCELVNDENVQQVLEELRGYCTDVSADFAQAAIFAIGGIARTYTDQCVQILTELLGLRQEHITTVVVQTFRDLVWLCPQCTEAVCQALPGCEENIQDSEGKQALIWLLGVHGERIPNAPYVLEDFVENVKSETFPAVKMELLTALLRLFLSRPAECQDMLGRLLYYCIEEEKDMAVRDRGLFYYRLLLVGIDEVKRILCSPKSDPTLGLLEDPAERPVNSWASDFNTLVPVYGKAHWATISKCQGAERCDPELPKTSSFAASGPLIPEENKERVQELPDSGALMLVPNRQLTADYFEKTWLSLKVAHQQVLPWRGEFHPDTLQMALQVVNIQTIAMSRAGSRPWKAYLSAQDDTGCLFLTELLLEPGNSEMQISVKQNEARTETLNSFISVLETVIGTIEEIKS [AP4B1]”, the “solubility in G1/S (log2)” value in series [1] is -0.123. Moreover, the results for the melting temperature in series [2] (cell cycle stage: G1/S) and in series [2] (cell cycle stage: mitosis) were 49.3 °C and 49.7 °C, respectively. Besides, the “solubility change mitosis (log2)” value in series [3] was -0.136. Moreover, the thermal stability score in series [4] (setting [5]) was -0.012; in series [4] (cell cycle stage: mitosis), 0.298.
As for “MQDDSIEASTSISQLLRESYLAETRHRGNNERSRAEPSSNPCHFGSPSGAAEGGGGQDDLPDLSAFLSQEELDESVNLARLAINYDPLEKADETQARKRLSPDQMKHSPNLSFEPNFCQDNPRSPTSSKESPQEAKRPQYCSETQSKKVFLNKAADFIEELSSLFKSHSSKRIRPRACKNHKSKLESQNKVMQENSSSFSDLSERRERSSVPIPIPADTRDNEVNHALEQQEAKRREAEQAASEAAGGDTTPGSSPSSLYYEEPLGQPPRFTQKLRSREVPEGTRVQLDCIVVGIPPPQVRWYCEGKELENSPDIHIVQAGNLHSLTIAEAFEEDTGRYSCFASNIYGTDSTSAEIYIEGVSSSDSEGDPNKEEMNRIQKPNEVSSPPTTSAVIPPAVPQAQHLVAQPRVATIQQCQSPTNYLQGLDGKPIIAAPVFTKMLQNLSASEGQLVVFECRVKGAPSPKVEWYREGTLIEDSPDFRILQKKPRSMAEPEEICTLVIAEVFAEDSGCFTCTASNKYGTVSSIAQLHVRGNEDLSNNGSLHSANSTTNLAAIEPQPSPPHSEPPSVEQPPKPKLEGVLVNHNEPRSSSRIGLRVHFNLPEDDKGSEASSEAGVVTTRQTRPDSFQERFNGQATKTPEPSSPVKEPPPVLAKPKLDSTQLQQLHNQVLLEQHQLQNPPPSSPKEFPFSMTVLNSNAPPAVTTSSKQVKAPSSQTFSLARPKYFFPSTNTTAATVAPSSSPVFTLSSTPQTIQRTVSKESLLVSHPSVQTKSPGGLSIQNEPLPPGPTEPTPPPFTFSIPSGNQFQPRCVSPIPVSPTSRIQNPVAFLSSVLPSLPAIPPTNAMGLPRSAPSMPSQGLAKKNTKSPQPVNDDNIRETKNAVIRDLGKKITFSDVRPNQQEYKISSFEQRLMNEIEFRLERTPVDESDDEIQHDEIPTGKCIAPIFDKRLKHFRVTEGSPVTFTCKIVGIPVPKVYWFKDGKQISKRNEHCKMRREGDGTCSLHIESTTSDDDGNYTIMAANPQGRISCSGHLMVQSLPIRSRLTSAGQSHRGRSRVQERDKEPLQERFFRPHFLQAPGDMVAHEGRLCRLDCKVSGLPPPELTWLLNGQPVLPDASHKMLVRETGVHSLLIDPLTQRDAGTYKCIATNKTGQNSFSLELSVVAKEVKKAPVILEKLQNCGVPEGHPVRLECRVIGMPPPVFYWKKDNETIPCTRERISMHQDTTGYACLLIQPAKKSDAGWYTLSAKNEAGIVSCTARLDIYAQWHHQIPPPMSVRPSGSRYGSLTSKGLDIFSAFSSMESTMVYSCSSRSVVESDEL [MYPN]”, the “solubility in G1/S (log2)” value in series [1] stood at 0.0329. In addition, the figures for the melting temperature in series [2] (cell cycle stage: G1/S) and in series [2] (cell cycle stage: mitosis) were 47.6 °C and 48.9 °C, respectively. The “solubility change mitosis (log2)” value in series [3] was -0.108. Further, the thermal stability score in series [4] (setting [5]) is -0.0918; in series [4] (cell cycle stage: mitosis), 3.44.
